Test [1] deals with T1, fusion protein containing the extracellular domain of human FRalpha and a polyhistidine tag (human, UniProt P15328 25-233).
T1 construct: extracellular domain; Coated on ELISA plates; also called human FRalpha extracellular domain; not shown: polyhistidine tag
Kind of test: ELISA, human FRalpha ECD-His coated. The procedure:
(§1) The affinity of each IgG1 for FRalpha was confirmed by ELISA. Briefly, a fusion protein containing the extracellular domain of human FRalpha and a polyhistidine tag was used to coat ELISA plates, which were washed three times with phosphate-buffered saline (PBS) containing 0.1 percent polysorbate 20 (PBST), then blocked with PBS containing 5 percent powdered milk (PBSM), and then washed three more times with PBST. Wells were then incubated with antibodies at varying concentrations for 60 minutes at room temperature in 1 percent PBSM. Wells were then washed three times with PBST, after which the secondary, horseradish-peroxidase-conjugated antibody anti-human-IgG-Fc-HRP (ab97225, Abcam, United Kingdom) was added at a 1:8000 dilution in 1 percent PBSM for 50 minutes at room temperature. The wells were then washed six times with PBST, after which 3,3', 5,5"-tetramethylbenzidine (TMB) was added. The reaction was stopped with 2 molar sulfuric acid, and the TMB diamine product was quantified at 450 nanometers in a plate reader. Results are depicted in FIG. 2.

Test [2] addresses T2, fusion protein containing the extracellular domain of cynomolgus FRalpha and a polyhistidine tag (cynomolgus, UniProt A0A2K5U044 25-233).
T2 construct: extracellular domain; Coated on ELISA plates; also called cynomolgus FRalpha extracellular domain; not shown: polyhistidine tag
Kind of test: ELISA, cynomolgus FRalpha ECD-His coated. The procedure: as §1
The ELISA of the preceding paragraph was repeated with a fusion protein containing the extracellular domain of cynomolgus FRalpha and a polyhistidine tag. Results are depicted in FIG. 3.

In test [3] the target is T3, human FRalpha expressed on cells (transfected HEK293 cells; SKOV3 human ovarian cancer cells) (human, UniProt P15328 25-234).
T3 construct: whole, on cells; also called folate receptor alpha
T3 sequence (P15328 25-234): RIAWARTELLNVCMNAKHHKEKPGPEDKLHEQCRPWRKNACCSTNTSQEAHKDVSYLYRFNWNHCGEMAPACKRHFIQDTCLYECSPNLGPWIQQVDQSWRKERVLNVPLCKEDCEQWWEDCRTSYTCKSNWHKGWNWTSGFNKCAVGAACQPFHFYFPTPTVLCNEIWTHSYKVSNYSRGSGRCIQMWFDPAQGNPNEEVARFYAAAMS
Kind of test: flow cytometry on HEK293 cells transfected to express FRalpha. The procedure: (§2) The affinity of each antibody was then assessed by flow cytometry. Briefly, HEK293 cells transfected to express FRalpha were washed with fluorescence-activated cell sorting (FACS) buffer, to which the IgGs were added at varying concentrations and incubated at 4 degrees Celsius for 60 minutes. The cells were then centrifuged and washed twice in FACS buffer. A phycoerythrin-labelled anti-human IgG, Fcgamma antibody (109-115-098; Jackson ImmunoResearch, Pennsylvania, United States) was then added to the cells at a 1:200 dilution and incubated at 4 degrees Celsius for 30 minutes. The cells were then washed, resuspended in FACS buffer, and counted by flow cytometry. Results are depicted in FIG. 4.

The target in test [4] is T3, human FRalpha expressed on cells …. Kind of test: flow cytometry on SKOV3 human ovarian cancer cells that express FRalpha. How it is done:
as §2
The flow cytometry experiment of the preceding paragraph was repeated with a human ovarian cancer cell line that expresses FRalpha, SKOV3. Results are depicted in FIGS. 5A and 5B. […] The antibody according to SEQ ID NO: 3-12 was then designated the lead antibody for further development.

In patent US12240900 (MEDICOVESTOR, dated 2025) one finds EC50 data, which are given here for two molecules.

T2 sequence (A0A2K5U044 entry or part of it): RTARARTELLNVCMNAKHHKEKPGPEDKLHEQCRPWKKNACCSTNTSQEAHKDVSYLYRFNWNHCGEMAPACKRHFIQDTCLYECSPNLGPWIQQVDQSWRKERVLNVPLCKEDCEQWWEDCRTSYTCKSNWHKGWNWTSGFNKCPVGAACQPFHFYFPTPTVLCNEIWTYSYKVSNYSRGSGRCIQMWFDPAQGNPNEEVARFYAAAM
T1 sequence (P15328 25-233 limits assumed): as the sequence (A0A2K5U044 entry or part of it) above, with T2I, R4W, K37R, P146A, Y171H counted along it

B1: lead fully-human anti-FRalpha IgG1 antibody (antibody according to SEQ ID NO: 3-12) (antibody, V domains shown)
VH: EVQLLESGGGLVKPGGSLRLSCAASGFTFSSYTMNWVRQAPGKGLEWVSSISSGGGYIYYADSVKDRFTISRDNAKNSLYLQMNSLRAEDTAVYYCAKGDTIMIISAWGQGTTVTVSS
VL: DIQLTQSPSTLSASVGDRVTITCRASQSISSWLAWHQQKPGKAPKLLIYAASSLQNGVPSRFSGSGFGTDFTLTISSLQPEDFATYYCQQASSFPLTFGGGTKVEIKR
notes: Human IgG1 / kappa; also called lead antibody; the anti-FRalpha IgG of this disclosure
In the case of B1, the EC50 is about 0.05 nM in test [1], about 0.06 nM in test [2], about 5 nM in test [3] and under 1 nM in test [4].

B2: Mirvetuximab (antibody, V domains shown)
VH: QVQLVQSGAEVVKPGASVKISCKASGYTFTGYFMNWVKQSPGQSLEWIGRIHPYDGDTFYNQKFQGKATLTVDKSSNTAHMELLSLTSEDFAVYYCTRYDGSRAMDYWGQGTTVTVSS
VL: DIVLTQSPLSLAVSLGQPAIISCKASQSVSFAGTSLMHWYHQKPGQQPRLLIYRASNLEAGVPDRFSGSGSKTDFTLTISPVEAEDAATYYCQQSREYPYTFGGGTKLEIK
Consider B2, for which the concentration giving a half-maximal response (EC50) was about 0.12 nM in test [1], about 0.16 nM in test [2] and about 4 nM in test [3].
